In paper PMC5300068, “Flexibility in Mannan-Binding Lectin-Associated Serine Proteases-1 and -2 Provides Insight on Lectin Pathway Activation” (Structure(London, England:1993), 2017):

Molecular target: the molecule itself
Assay: AUC; sedimentation velocity, 50,000 rpm, absorbance optics, c(s) analysis; physiological ionic strength, buffers with Ca2+ or EDTA; 0.8-2.2 uM for full-length MASPs; dimer to monomers

B1: rat MASP-2 CUB1-EGF-CUB2 (MASP-2 3D) (domain or fragment)
chain: SKWPEPVFGRLVSLGFPEKYGNHQDRSWTLTAPPGFRLRLYFTHFNLELSYRCEYDFVKLTSGTKVLATLCGQESTDTERAPGNDTFYSLGPSLKVTFHSDYSNEKPFTGFEAFYAAEDVDECRTSLGDSVPCDHYCHNYLGGYYCSCRVGYILHQNKHTCSALCSGQVFTGRSGFLSSPEYPQPYPKLSSCAYNIRLEEGFSITLDFVESFDVEMHPEAQCPYDSLKIQTDKREYGPFCGKTLPPRIETDSNKVTITFTTDESGNHTGWKIHYTSTAQP
modifications: N-glycosylated (glycosylation sites shown in Figure 1)
notes: Homodimer; production details are in the Supplemental Information; source: Chinese hamster ovary cells, purified (gel filtration, Superdex 200 16/60); not shown: His6, C-terminal, kept
- stoichiometry N: 2
